How the values were obtained:
Test in all cases: co-IP
[1] = biological target: Cyclin T1 (human (endogenous in 293T and HFF)) (UniProt O60563)
[2] = biological target: Cyclin H (human (endogenous in 293T and HFF)) (UniProt P51946)
[3] = biological target: Cyclin B1 (human (endogenous in 293T and HFF)) (UniProt P14635)
Chain of Cyclin B1 (human (endogenous in 293T and HFF)) (P14635 whole entry): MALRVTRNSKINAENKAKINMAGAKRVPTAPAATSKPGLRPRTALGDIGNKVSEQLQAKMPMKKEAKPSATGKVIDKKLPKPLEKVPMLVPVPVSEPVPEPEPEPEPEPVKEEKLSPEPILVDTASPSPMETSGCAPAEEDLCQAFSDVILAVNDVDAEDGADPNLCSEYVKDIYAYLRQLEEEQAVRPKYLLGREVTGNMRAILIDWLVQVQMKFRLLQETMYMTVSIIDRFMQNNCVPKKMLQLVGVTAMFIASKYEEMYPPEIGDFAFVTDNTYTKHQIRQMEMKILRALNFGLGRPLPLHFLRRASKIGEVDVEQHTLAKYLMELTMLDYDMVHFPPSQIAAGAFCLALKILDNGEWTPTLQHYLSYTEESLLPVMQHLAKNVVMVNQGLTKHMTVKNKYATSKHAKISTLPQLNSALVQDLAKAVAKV

Chain of Cyclin T1 (human (endogenous in 293T and HFF)) (O60563 whole entry): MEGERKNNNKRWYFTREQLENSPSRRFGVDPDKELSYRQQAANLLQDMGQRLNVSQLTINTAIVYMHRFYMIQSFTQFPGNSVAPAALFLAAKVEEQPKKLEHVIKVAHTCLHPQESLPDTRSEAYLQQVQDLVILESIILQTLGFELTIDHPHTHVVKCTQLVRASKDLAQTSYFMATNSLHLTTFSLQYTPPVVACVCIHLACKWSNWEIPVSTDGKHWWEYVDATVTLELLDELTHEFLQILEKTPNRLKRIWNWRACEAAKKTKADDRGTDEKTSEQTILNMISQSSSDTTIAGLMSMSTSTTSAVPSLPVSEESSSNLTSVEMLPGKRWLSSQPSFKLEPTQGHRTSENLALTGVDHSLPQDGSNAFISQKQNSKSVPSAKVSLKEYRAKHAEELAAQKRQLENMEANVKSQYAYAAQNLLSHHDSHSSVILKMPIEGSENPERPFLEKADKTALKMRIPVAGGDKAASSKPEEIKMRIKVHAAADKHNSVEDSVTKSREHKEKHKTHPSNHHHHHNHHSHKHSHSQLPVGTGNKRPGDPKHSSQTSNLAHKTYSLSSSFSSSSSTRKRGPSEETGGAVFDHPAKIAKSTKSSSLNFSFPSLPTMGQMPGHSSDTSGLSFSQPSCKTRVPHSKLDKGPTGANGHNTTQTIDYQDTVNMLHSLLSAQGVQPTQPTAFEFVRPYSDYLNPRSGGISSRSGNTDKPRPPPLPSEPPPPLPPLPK
Chain of Cyclin H (human (endogenous in 293T and HFF)) (P51946 whole entry): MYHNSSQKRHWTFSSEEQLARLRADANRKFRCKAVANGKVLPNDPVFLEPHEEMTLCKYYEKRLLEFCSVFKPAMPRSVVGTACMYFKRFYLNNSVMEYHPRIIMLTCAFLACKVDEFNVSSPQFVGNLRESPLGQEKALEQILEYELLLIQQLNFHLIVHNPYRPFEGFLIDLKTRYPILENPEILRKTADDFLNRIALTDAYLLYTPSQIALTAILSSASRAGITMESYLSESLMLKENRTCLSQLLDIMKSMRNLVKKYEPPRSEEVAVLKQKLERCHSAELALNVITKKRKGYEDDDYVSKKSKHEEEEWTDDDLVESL

Substance | pUL97 co-IP Western blot signal relative to cyclin B1 [1] [%] | pUL97 co-IP Western blot signal relative to cyclin B1 [2] [%] | pUL97 co-IP Western blot signal relative to cyclin B1 [3] [%]
HCMV protein kinase pUL97, Flag-tagged (pUL97-Flag) (from UniProt P16788 1-707) (natural protein) | 9 | 4 | –
Protein kinase pUL97 of HCMV AD169, in infected cells (natural protein) | 77 | 160 | 100
pUL97 stably expressed in transduced HFFs (from UniProt P16788 1-707) (natural protein) | 42 | – | –
